Experimental data: paper PMC8476561 (2021)

Biological target: SARS-CoV-2 RBD (wild type) (SARS-CoV-2, UniProt P0DTC2 319-541)
Test: SPR

B1: Mouse angiotensin-converting enzyme 2 (receptor)
chain: SLTEENAKTFLNNFNQEAEDLSYQSSLASWNYNTNITEENAQKMSEAAAKWSAFYEEQSKTAQSFSLQEIQTPIIKRQLQALQQSGSSALSADKNKQLNTILNTMSTIYSTGKVCNPKNPQECLLLEPGLDEIMATSTDYNSRLWAWEGWRAEVGKQLRPLYEEYVVLKNEMARANNYNDYGDYWRGDYEAEGADGYNYNRNQLIEDVERTFAEIKPLYEHLHAYVRRKLMDTYPSYISPTGCLPAHLLGDMWGRFWTNLYPLTVPFAQKPNIDVTDAMMNQGWDAERIFQEAEKFFVSVGLPHMTQGFWANSMLTEPADGRKVVCHPTAWDLGHGDFRIKMCTKVTMDNFLTAHHEMGHIQYDMAYARQPFLLRNGANEGFHEAVGEIMSLSAATPKHLKSIGLLPSDFQEDSETEINFLLKQALTIVGTLPFTYMLEKWRWMVFRGEIPKEQWMKKWWEMKREIVGVVEPLPHDETYCDPASLFHVSNDYSFIRYYTRTIYQFQFQEALCQAAKYNGSLHKCDISNSTEAGQKLLKMLSLGNSEPWTKALENVVGARNMDVKPLLNYFQPLFDWLKEQNRNSFVGWNTEWSPYADQSIKVRISLKSALGANAYEWTNNEMFLFRSSVAYAMRKYFSIIKNQTVPFLEEDVRVSDLKPRVSFYFFVTSPQNVSDVIPRSEVEDAIRMSRGRINDVFGLNDNSLEFLGIHPTLEPPYQPPV
- Kd: > 1000 µM
